Test results published in doi:10.1101/2020.01.18.911131.
pKd: −log10 of the molar value.

Molecular target: taxol-stabilized microtubules (porcine brain tubulin) (porcine) (UniProt P02550)
Test: co-sedimentation

Row | Substance | pKd
1 | chick Fmn2 FH2FSI (1148th-1587th aa) (from UniProt A0A1B2VWD2 1148-1587) (domain or fragment) | 5.80
2 | chick Fmn2 FH2_ΔFSI (1148th-1563rd aa) (from UniProt A0A1B2VWD2 1148-1563) (domain or fragment) | 4.73
